Biological target: T1, flag-tagged Gli1S84A (human, UniProt P08151 1-1106)
T1 construct: also called flag-Gli1S84A; not shown: flag tag from vector p3flag-CMV10
T1 sequence (looked up): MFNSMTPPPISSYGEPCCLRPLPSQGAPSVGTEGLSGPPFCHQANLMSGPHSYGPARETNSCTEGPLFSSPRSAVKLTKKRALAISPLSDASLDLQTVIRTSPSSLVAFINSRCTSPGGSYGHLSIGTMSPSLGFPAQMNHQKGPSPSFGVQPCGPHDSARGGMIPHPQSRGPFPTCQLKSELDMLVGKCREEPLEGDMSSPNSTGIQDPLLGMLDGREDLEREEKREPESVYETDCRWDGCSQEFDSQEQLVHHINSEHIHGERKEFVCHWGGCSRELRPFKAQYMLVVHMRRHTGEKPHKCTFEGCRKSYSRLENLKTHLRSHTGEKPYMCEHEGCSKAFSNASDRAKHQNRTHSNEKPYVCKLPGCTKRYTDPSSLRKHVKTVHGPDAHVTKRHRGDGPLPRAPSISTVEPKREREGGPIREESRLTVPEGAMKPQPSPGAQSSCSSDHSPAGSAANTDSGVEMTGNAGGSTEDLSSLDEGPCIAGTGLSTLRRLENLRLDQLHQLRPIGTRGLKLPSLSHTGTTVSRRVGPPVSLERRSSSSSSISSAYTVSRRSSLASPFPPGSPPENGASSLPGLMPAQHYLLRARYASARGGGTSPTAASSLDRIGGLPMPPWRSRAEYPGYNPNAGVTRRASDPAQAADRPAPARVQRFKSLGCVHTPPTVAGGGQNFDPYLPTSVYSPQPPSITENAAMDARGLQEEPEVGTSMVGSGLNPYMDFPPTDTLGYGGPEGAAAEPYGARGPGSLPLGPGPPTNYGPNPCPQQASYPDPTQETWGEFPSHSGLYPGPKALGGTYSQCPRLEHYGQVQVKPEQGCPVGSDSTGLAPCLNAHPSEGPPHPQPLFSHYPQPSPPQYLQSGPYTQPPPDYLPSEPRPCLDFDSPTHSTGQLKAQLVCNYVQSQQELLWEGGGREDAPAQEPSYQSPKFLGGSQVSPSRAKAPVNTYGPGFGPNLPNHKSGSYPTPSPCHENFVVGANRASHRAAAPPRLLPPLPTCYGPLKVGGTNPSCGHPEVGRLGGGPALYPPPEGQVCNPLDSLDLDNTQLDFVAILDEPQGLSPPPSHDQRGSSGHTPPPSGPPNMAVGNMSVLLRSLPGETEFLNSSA
Assay: IP-Western, flag-tagged Gli1S84A transfected into BE3 cells
Procedure: FIGS. 13A-13K. related to FIG. 5. […] FIG. 13A. Luciferase assay of Gli reporter in the stable clones treated by TNFα alone (5 ng/mL) or TNFα plus rapamycin (100 nM). Error bars represent SD (n=3). FIG. 13B. Gli1 immunofluorescence staining in several BE3 stable clones with TNFα treatment. Scale bar=100 μm for original picture and 25 μm for inset. FIG. 13C. The regulation of p-Gli1 by TNFα alone or together with rapamycin (10, 50, and 100 nM) in the BE3 stable clone. FIG. 13D. MTT assay of the various Gli1 stable clones. All cells were counted, and then 3,000 cells were seeded in each well of a 96-well plate. Error bars represent SD (n=3). FIG. 13E. Soft-agar assay of the various Gli1 stable clones. All cells were counted, and then 1,000 cells were mixed with agarose for each well of a 24-well plate. Left, representative microscopic images. Right, quantitation of colony formation. Error bars represent SD (n=3). FIG. 13F. Invasion assay of the various Gli1 stable clones. All cells were counted, and then 1,000 cells were seeded on matrigel in transwells. Left, representative microscopic images from the bottom side of transwell membranes. Right, quantitation of invasive cells. Error bars represent SD (n=3). FIGS. 13G-13I. The assays of MTT (G), soft agar (H), and invasion (I) using the BE3 stable clones treated with TNFα.

- binding result: binds
B1: SuFu (other, human, UniProt Q9UMX1 1-484, looked up)
chain: MAELRPSGAPGPTAPPAPGPTAPPAFASLFPPGLHAIYGECRRLYPDQPNPLQVTAIVKYWLGGPDPLDYVSMYRNVGSPSANIPEHWHYISFGLSDLYGDNRVHEFTGTDGPSGFGFELTFRLKRETGESAPPTWPAELMQGLARYVFQSENTFCSGDHVSWHSPLDNSESRIQHMLLTEDPQMQPVQTPFGVVTFLQIVGVCTEELHSAQQWNGQGILELLRTVPIAGGPWLITDMRRGETIFEIDPHLQERVDKGIETDGSNLSGVSAKCAWDDLSRPPEDDEDSRSICIGTQPRRLSGKDTEQIRETLRRGLEINSKPVLPPINPQRQNGLAHDRAPSRKDSLESDSSTAIIPHELIRTRQLESVHLKFNQESGALIPLCLRGRLLHGRHFTYKSITGDMAITFVSTGVEGAFATEEHPYAAHGPWLQILLTEEFVEKMLEDLEDLTSPEEFKLPKEYSWPEKKLKVSILPDVVFDSPLH
notes: also called suppressor of fused
